EC50 [nM], 0% HSA and EC50 [nM], 0.1% HSA data for 6 molecules are collected here from US12679878B2, “CRF2 receptor agonists and their use in therapy” (SANOFI, priority 2020, dated 2026).

Starred links: 1 amine or outer side, 2 acyl side, 3 side chain; linkers in the order of their positions; H or OH if unused. Non-standard residues stand in square brackets, D forms with d. Groups on a side chain read outwards from the residue. No end group written: not given here. *: point of attachment. C18 diacid = O=C(O)CCCCCCCCCCCCCCCCC(=O)*; γGlu = O=C(O)[C@H](CCC(=O)[*:2])N[*:1]; AEEA = NCCOCCOCC(=O)O; Aib = CC(C)(N)C(=O)O

The assay concerns the target human corticotropin-releasing factor 2α (CRF2 α receptor) (human), Q13324. In words: cell-based or functional assay.

human corticotropin-releasing factor 2α (CRF2 α receptor) (human), Q13324, sequence (Q13324 20-411): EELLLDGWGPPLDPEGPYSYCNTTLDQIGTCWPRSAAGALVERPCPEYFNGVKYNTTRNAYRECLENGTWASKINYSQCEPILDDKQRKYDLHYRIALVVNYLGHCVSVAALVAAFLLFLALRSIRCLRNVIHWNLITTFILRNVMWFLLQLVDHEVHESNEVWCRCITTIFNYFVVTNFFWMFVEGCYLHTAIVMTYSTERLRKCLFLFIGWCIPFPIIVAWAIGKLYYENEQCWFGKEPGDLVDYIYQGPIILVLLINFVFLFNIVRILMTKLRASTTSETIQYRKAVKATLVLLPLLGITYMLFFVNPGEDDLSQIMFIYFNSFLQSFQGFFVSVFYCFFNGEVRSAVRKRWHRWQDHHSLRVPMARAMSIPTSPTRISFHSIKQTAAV

B1: SEQ ID NO: 50 (peptide)
peptide: IVLSLDVPTKLK([AEEA-AEEA-γGlu-C18 diacid])QILLKQERQR[Aib]ERQQAETNVRILERV-NH2
modifications: N-terminus assumed
SMILES: CC[C@H](C)[C@H](N)C(=O)N[C@H](C(=O)N[C@@H](CC(C)C)C(=O)N[C@@H](CO)C(=O)N[C@@H](CC(C)C)C(=O)N[C@@H](CC(=O)O)C(=O)N[C@H](C(=O)N1CCC[C@H]1C(=O)N[C@H](C(=O)N[C@@H](CCCCN)C(=O)N[C@@H](CC(C)C)C(=O)N[C@@H](CCCCNC(=O)COCCOCCNC(=O)COCCOCCNC(=O)CC[C@H](NC(=O)CCCCCCCCCCCCCCCCC(=O)O)C(=O)O)C(=O)N[C@@H](CCC(N)=O)C(=O)N[C@H](C(=O)N[C@@H](CC(C)C)C(=O)N[C@@H](CC(C)C)C(=O)N[C@@H](CCCCN)C(=O)N[C@@H](CCC(N)=O)C(=O)N[C@@H](CCC(=O)O)C(=O)N[C@@H](CCCNC(=N)N)C(=O)N[C@@H](CCC(N)=O)C(=O)N[C@@H](CCCNC(=N)N)C(=O)NC(C)(C)C(=O)N[C@@H](CCC(=O)O)C(=O)N[C@@H](CCCNC(=N)N)C(=O)N[C@@H](CCC(N)=O)C(=O)N[C@@H](CCC(N)=O)C(=O)N[C@@H](C)C(=O)N[C@@H](CCC(=O)O)C(=O)N[C@H](C(=O)N[C@@H](CC(N)=O)C(=O)N[C@H](C(=O)N[C@@H](CCCNC(=N)N)C(=O)N[C@H](C(=O)N[C@@H](CC(C)C)C(=O)N[C@@H](CCC(=O)O)C(=O)N[C@@H](CCCNC(=N)N)C(=O)N[C@H](C(N)=O)C(C)C)[C@@H](C)CC)C(C)C)[C@@H](C)O)[C@@H](C)CC)[C@@H](C)O)C(C)C)C(C)C
With B1, the EC50 [nM], 0% HSA is 17.2 nM.

B2: SEQ ID NO: 52 (peptide)
peptide: FTLSLDVPTKIK([AEEA-AEEA-γGlu-C18 diacid])QILLKQQKQKKERQQAEKNKQLLERV-NH2
modifications: N-terminus assumed
SMILES: CC[C@H](C)[C@H](NC(=O)[C@H](CCC(N)=O)NC(=O)[C@H](CCCCNC(=O)COCCOCCNC(=O)COCCOCCNC(=O)CC[C@H](NC(=O)CCCCCCCCCCCCCCCCC(=O)O)C(=O)O)NC(=O)[C@@H](NC(=O)[C@H](CCCCN)NC(=O)[C@@H](NC(=O)[C@@H]1CCCN1C(=O)[C@@H](NC(=O)[C@H](CC(=O)O)NC(=O)[C@H](CC(C)C)NC(=O)[C@H](CO)NC(=O)[C@H](CC(C)C)NC(=O)[C@@H](NC(=O)[C@@H](N)Cc1ccccc1)[C@@H](C)O)C(C)C)[C@@H](C)O)[C@@H](C)CC)C(=O)N[C@@H](CC(C)C)C(=O)N[C@@H](CC(C)C)C(=O)N[C@@H](CCCCN)C(=O)N[C@@H](CCC(N)=O)C(=O)N[C@@H](CCC(N)=O)C(=O)N[C@@H](CCCCN)C(=O)N[C@@H](CCC(N)=O)C(=O)N[C@@H](CCCCN)C(=O)N[C@@H](CCCCN)C(=O)N[C@@H](CCC(=O)O)C(=O)N[C@@H](CCCNC(=N)N)C(=O)N[C@@H](CCC(N)=O)C(=O)N[C@@H](CCC(N)=O)C(=O)N[C@@H](C)C(=O)N[C@@H](CCC(=O)O)C(=O)N[C@@H](CCCCN)C(=O)N[C@@H](CC(N)=O)C(=O)N[C@@H](CCCCN)C(=O)N[C@@H](CCC(N)=O)C(=O)N[C@@H](CC(C)C)C(=O)N[C@@H](CC(C)C)C(=O)N[C@@H](CCC(=O)O)C(=O)N[C@@H](CCCNC(=N)N)C(=O)N[C@H](C(N)=O)C(C)C
With B2, the EC50 [nM], 0% HSA amounted to 0.7 nM and the EC50 [nM], 0.1% HSA came to 45.8 nM.

B3: SEQ ID NO: 51 (peptide)
peptide: FTLSLDVPTKIK([AEEA-AEEA-γGlu-C18 diacid])QILLKQQKQKKERQQAEKNKQLLEQI-NH2
modifications: N-terminus assumed
SMILES: CC[C@H](C)[C@H](NC(=O)[C@H](CCC(N)=O)NC(=O)[C@H](CCC(=O)O)NC(=O)[C@H](CC(C)C)NC(=O)[C@H](CC(C)C)NC(=O)[C@H](CCC(N)=O)NC(=O)[C@H](CCCCN)NC(=O)[C@H](CC(N)=O)NC(=O)[C@H](CCCCN)NC(=O)[C@H](CCC(=O)O)NC(=O)[C@H](C)NC(=O)[C@H](CCC(N)=O)NC(=O)[C@H](CCC(N)=O)NC(=O)[C@H](CCCNC(=N)N)NC(=O)[C@H](CCC(=O)O)NC(=O)[C@H](CCCCN)NC(=O)[C@H](CCCCN)NC(=O)[C@H](CCC(N)=O)NC(=O)[C@H](CCCCN)NC(=O)[C@H](CCC(N)=O)NC(=O)[C@H](CCC(N)=O)NC(=O)[C@H](CCCCN)NC(=O)[C@H](CC(C)C)NC(=O)[C@H](CC(C)C)NC(=O)[C@@H](NC(=O)[C@H](CCC(N)=O)NC(=O)[C@H](CCCCNC(=O)COCCOCCNC(=O)COCCOCCNC(=O)CC[C@H](NC(=O)CCCCCCCCCCCCCCCCC(=O)O)C(=O)O)NC(=O)[C@@H](NC(=O)[C@H](CCCCN)NC(=O)[C@@H](NC(=O)[C@@H]1CCCN1C(=O)[C@@H](NC(=O)[C@H](CC(=O)O)NC(=O)[C@H](CC(C)C)NC(=O)[C@H](CO)NC(=O)[C@H](CC(C)C)NC(=O)[C@@H](NC(=O)[C@@H](N)Cc1ccccc1)[C@@H](C)O)C(C)C)[C@@H](C)O)[C@@H](C)CC)[C@@H](C)CC)C(N)=O
As for B3, the EC50 [nM], 0% HSA was found to be 0.32 nM and the EC50 [nM], 0.1% HSA worked out at 21.4 nM.

B4: SEQ ID NO: 54 (peptide)
peptide: FTLSLDVPIKLK([AEEA-AEEA-γGlu-C18 diacid])QILLKQQKQKKERQQAETNVQLLERV-NH2
modifications: N-terminus assumed
SMILES: CC[C@H](C)[C@H](NC(=O)[C@H](CCC(N)=O)NC(=O)[C@H](CCCCNC(=O)COCCOCCNC(=O)COCCOCCNC(=O)CC[C@H](NC(=O)CCCCCCCCCCCCCCCCC(=O)O)C(=O)O)NC(=O)[C@H](CC(C)C)NC(=O)[C@H](CCCCN)NC(=O)[C@@H](NC(=O)[C@@H]1CCCN1C(=O)[C@@H](NC(=O)[C@H](CC(=O)O)NC(=O)[C@H](CC(C)C)NC(=O)[C@H](CO)NC(=O)[C@H](CC(C)C)NC(=O)[C@@H](NC(=O)[C@@H](N)Cc1ccccc1)[C@@H](C)O)C(C)C)[C@@H](C)CC)C(=O)N[C@@H](CC(C)C)C(=O)N[C@@H](CC(C)C)C(=O)N[C@@H](CCCCN)C(=O)N[C@@H](CCC(N)=O)C(=O)N[C@@H](CCC(N)=O)C(=O)N[C@@H](CCCCN)C(=O)N[C@@H](CCC(N)=O)C(=O)N[C@@H](CCCCN)C(=O)N[C@@H](CCCCN)C(=O)N[C@@H](CCC(=O)O)C(=O)N[C@@H](CCCNC(=N)N)C(=O)N[C@@H](CCC(N)=O)C(=O)N[C@@H](CCC(N)=O)C(=O)N[C@@H](C)C(=O)N[C@@H](CCC(=O)O)C(=O)N[C@H](C(=O)N[C@@H](CC(N)=O)C(=O)N[C@H](C(=O)N[C@@H](CCC(N)=O)C(=O)N[C@@H](CC(C)C)C(=O)N[C@@H](CC(C)C)C(=O)N[C@@H](CCC(=O)O)C(=O)N[C@@H](CCCNC(=N)N)C(=O)N[C@H](C(N)=O)C(C)C)C(C)C)[C@@H](C)O
In the case of B4, the EC50 [nM], 0% HSA turned out to be 0.57 nM and the EC50 [nM], 0.1% HSA was 24.5 nM.

B5: SEQ ID NO: 53 (peptide)
peptide: FTLSLDVPTKIK([AEEA-AEEA-γGlu-C18 diacid])QILLKQQKQKKERQQAETNKQLLERV-NH2
modifications: N-terminus assumed
SMILES: CC[C@H](C)[C@H](NC(=O)[C@H](CCC(N)=O)NC(=O)[C@H](CCCCNC(=O)COCCOCCNC(=O)COCCOCCNC(=O)CC[C@H](NC(=O)CCCCCCCCCCCCCCCCC(=O)O)C(=O)O)NC(=O)[C@@H](NC(=O)[C@H](CCCCN)NC(=O)[C@@H](NC(=O)[C@@H]1CCCN1C(=O)[C@@H](NC(=O)[C@H](CC(=O)O)NC(=O)[C@H](CC(C)C)NC(=O)[C@H](CO)NC(=O)[C@H](CC(C)C)NC(=O)[C@@H](NC(=O)[C@@H](N)Cc1ccccc1)[C@@H](C)O)C(C)C)[C@@H](C)O)[C@@H](C)CC)C(=O)N[C@@H](CC(C)C)C(=O)N[C@@H](CC(C)C)C(=O)N[C@@H](CCCCN)C(=O)N[C@@H](CCC(N)=O)C(=O)N[C@@H](CCC(N)=O)C(=O)N[C@@H](CCCCN)C(=O)N[C@@H](CCC(N)=O)C(=O)N[C@@H](CCCCN)C(=O)N[C@@H](CCCCN)C(=O)N[C@@H](CCC(=O)O)C(=O)N[C@@H](CCCNC(=N)N)C(=O)N[C@@H](CCC(N)=O)C(=O)N[C@@H](CCC(N)=O)C(=O)N[C@@H](C)C(=O)N[C@@H](CCC(=O)O)C(=O)N[C@H](C(=O)N[C@@H](CC(N)=O)C(=O)N[C@@H](CCCCN)C(=O)N[C@@H](CCC(N)=O)C(=O)N[C@@H](CC(C)C)C(=O)N[C@@H](CC(C)C)C(=O)N[C@@H](CCC(=O)O)C(=O)N[C@@H](CCCNC(=N)N)C(=O)N[C@H](C(N)=O)C(C)C)[C@@H](C)O
B5 came in with an EC50 [nM], 0% HSA of 1.01 nM and an EC50 [nM], 0.1% HSA of 55.1 nM.

B6: SEQ ID NO: 55 (peptide)
peptide: FTLSLDVPTKIK([AEEA-AEEA-γGlu-C18 diacid])QILLKQQKQKKERQKAETNVQLLERV-NH2
modifications: N-terminus assumed
SMILES: CC[C@H](C)[C@H](NC(=O)[C@H](CCC(N)=O)NC(=O)[C@H](CCCCNC(=O)COCCOCCNC(=O)COCCOCCNC(=O)CC[C@H](NC(=O)CCCCCCCCCCCCCCCCC(=O)O)C(=O)O)NC(=O)[C@@H](NC(=O)[C@H](CCCCN)NC(=O)[C@@H](NC(=O)[C@@H]1CCCN1C(=O)[C@@H](NC(=O)[C@H](CC(=O)O)NC(=O)[C@H](CC(C)C)NC(=O)[C@H](CO)NC(=O)[C@H](CC(C)C)NC(=O)[C@@H](NC(=O)[C@@H](N)Cc1ccccc1)[C@@H](C)O)C(C)C)[C@@H](C)O)[C@@H](C)CC)C(=O)N[C@@H](CC(C)C)C(=O)N[C@@H](CC(C)C)C(=O)N[C@@H](CCCCN)C(=O)N[C@@H](CCC(N)=O)C(=O)N[C@@H](CCC(N)=O)C(=O)N[C@@H](CCCCN)C(=O)N[C@@H](CCC(N)=O)C(=O)N[C@@H](CCCCN)C(=O)N[C@@H](CCCCN)C(=O)N[C@@H](CCC(=O)O)C(=O)N[C@@H](CCCNC(=N)N)C(=O)N[C@@H](CCC(N)=O)C(=O)N[C@@H](CCCCN)C(=O)N[C@@H](C)C(=O)N[C@@H](CCC(=O)O)C(=O)N[C@H](C(=O)N[C@@H](CC(N)=O)C(=O)N[C@H](C(=O)N[C@@H](CCC(N)=O)C(=O)N[C@@H](CC(C)C)C(=O)N[C@@H](CC(C)C)C(=O)N[C@@H](CCC(=O)O)C(=O)N[C@@H](CCCNC(=N)N)C(=O)N[C@H](C(N)=O)C(C)C)C(C)C)[C@@H](C)O
On to B6, for which the EC50 [nM], 0% HSA was 48.5 nM.
